Test results reported in patent US20260144882A1 (BIO THERA SOLUTIONS, published 2026).
Values joined by “and” are separate entries in the source; they are usually repeats but may differ in a detail not shown here. Equal entries are not always repeated. Where two headings read alike, the source gives them in different places.

How the values were obtained:
[1] = biological target: T1, human Nectin-4 extracellular antigen hNectin-4-His (human, UniProt Q96NY8 32-349); assay: ELISA, coated hNectin-4-His
T1 construct: C-terminal 8xHis tag included
T1 sequence: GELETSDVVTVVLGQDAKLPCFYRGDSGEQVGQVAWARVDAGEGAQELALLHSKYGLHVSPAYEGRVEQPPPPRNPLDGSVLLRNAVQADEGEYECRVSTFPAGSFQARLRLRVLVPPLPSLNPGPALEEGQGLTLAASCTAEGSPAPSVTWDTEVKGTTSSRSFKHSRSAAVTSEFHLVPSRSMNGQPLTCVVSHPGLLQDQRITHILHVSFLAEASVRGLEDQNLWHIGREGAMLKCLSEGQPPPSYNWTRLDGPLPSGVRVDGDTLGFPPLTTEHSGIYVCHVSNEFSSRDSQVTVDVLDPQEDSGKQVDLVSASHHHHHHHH
From the text: (§1) The binding activity of the antibodies was detected by ELISA.

[2] = biological target: T1, human Nectin-4 extracellular antigen …; assay: SPR (BIAcore T200): antibody captured on a Protein A chip, hNectin-4-His injected at 0-100 nM, 1:1 fit. The sheet prints no unit; M is taken from the column head of Table 12 for the same fits. Table 12 prints 6.03E-09 for ASG-22, so the sheet's number differs from the text.
From the text: (§2) In this study, the affinity of the antibodies for the human Nectin-4 extracellular antigen was detected by surface plasmon resonance (SPR) technique (BIAcore: GE Healthcare, T200).

[3] = biological target: T2, human Nectin-4, full length on cells (human, UniProt Q96NY8 32-510); assay: flow cytometry, T-47D cells, antibody bound on ice, 0 h at 37 C
T2 construct: whole, on cells; T-47D cells positive for Nectin-4 expression; also called Nectin-4 on T-47D cells; CHO-Nectin-4
T2 sequence (looked up): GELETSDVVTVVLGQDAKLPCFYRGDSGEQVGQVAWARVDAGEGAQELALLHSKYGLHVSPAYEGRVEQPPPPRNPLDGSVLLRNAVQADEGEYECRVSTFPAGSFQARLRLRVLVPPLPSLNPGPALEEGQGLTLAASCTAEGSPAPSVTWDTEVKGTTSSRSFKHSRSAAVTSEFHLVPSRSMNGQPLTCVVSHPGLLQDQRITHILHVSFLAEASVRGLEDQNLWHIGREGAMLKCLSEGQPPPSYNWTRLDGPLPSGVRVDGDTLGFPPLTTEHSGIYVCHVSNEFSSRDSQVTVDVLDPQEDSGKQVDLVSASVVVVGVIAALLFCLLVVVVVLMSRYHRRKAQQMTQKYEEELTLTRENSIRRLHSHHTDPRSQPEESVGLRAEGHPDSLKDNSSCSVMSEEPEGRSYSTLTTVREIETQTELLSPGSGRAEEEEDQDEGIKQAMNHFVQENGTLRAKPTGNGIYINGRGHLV
Method: (§3) In this assay, the relative amount of antibodies remaining on the cell surface after co-incubation at 37° C. for a certain period of time was detected by FACS to reflect the endocytosis efficiency. The procedures are briefly described as follows: T-47D cells (human ductal breast cancer cells, derived from the Cell Bank of Chinese Academy of Sciences, Cat.No. TCHu 87); the antibodies of interest were adjusted to 10 µg/mL and co-incubated with the cells on ice for 1 h; the cells were washed 3 times with pre-cooled PBS, and then placed at 37° C. and incubated for 0 h, 2 h and 4 h; 0.2% N₃Na was added to stop the endocytosis reaction; the cells were washed with PBS thrice, followed by the addition of the PE-labeled anti-human Fc secondary antibody (Invitrogen 12-4998-82); the cells were incubated at 4° C. for 30 min; the red fluorescence signal was detected on a flow cytometer.

[4] = biological target: T1, human Nectin-4 extracellular antigen …; assay: SPR, antibody on Protein A chip, hNectin-4-His analyte, 1:1 fit
From the text: as §2

[5] = biological target: T1, human Nectin-4 extracellular antigen …; assay: ELISA, coated hNectin-4-His; remark: listed apart in the source
From the text: as §1

[6] = biological target: T3, monkey cNectin-4 protein (ACRO, NE4-C52H4) (cynomolgus monkey, UniProt A0A2K5WES1 32-349); assay: ELISA, coated antigen
T3 construct: bought; construct not described; also called cynomolgus monkey Nectin-4
T3 sequence: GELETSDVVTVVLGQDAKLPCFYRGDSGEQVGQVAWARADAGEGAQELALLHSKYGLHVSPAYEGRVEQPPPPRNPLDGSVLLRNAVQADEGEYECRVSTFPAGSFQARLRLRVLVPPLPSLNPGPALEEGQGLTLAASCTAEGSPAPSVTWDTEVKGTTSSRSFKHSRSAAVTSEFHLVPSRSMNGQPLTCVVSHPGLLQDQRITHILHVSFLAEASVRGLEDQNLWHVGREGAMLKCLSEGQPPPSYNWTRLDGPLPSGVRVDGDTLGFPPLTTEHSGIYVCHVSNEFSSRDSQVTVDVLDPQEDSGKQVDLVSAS

[7] = biological target: T4, mouse mNectin-4 protein (ACRO, NE4-M52H3) (mouse, UniProt Q8R007 31-347); assay: ELISA, coated antigen
T4 construct: bought; construct not described; also called mouse Nectin-4
T4 sequence (looked up): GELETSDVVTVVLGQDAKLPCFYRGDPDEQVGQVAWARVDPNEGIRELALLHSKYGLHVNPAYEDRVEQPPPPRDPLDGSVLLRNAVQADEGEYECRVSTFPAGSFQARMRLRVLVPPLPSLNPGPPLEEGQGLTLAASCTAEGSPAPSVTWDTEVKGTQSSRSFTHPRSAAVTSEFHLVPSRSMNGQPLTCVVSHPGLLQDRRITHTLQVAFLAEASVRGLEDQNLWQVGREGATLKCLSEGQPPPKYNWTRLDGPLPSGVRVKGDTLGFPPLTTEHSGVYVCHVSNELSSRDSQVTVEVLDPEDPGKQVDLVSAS

[8] = biological target: T1, human Nectin-4 extracellular antigen …; assay: ELISA, coated antigen
[9] = biological target: T1, human Nectin-4 extracellular antigen …; assay: SPR, antibody on Protein A chip, 1:1 fit
From the text: as §2

[10] = biological target: T1, human Nectin-4 extracellular antigen …; assay: ELISA, coated hNectin-4-His; remark: listed apart in the source
From the text: as §1

[11] = biological target: T2, human Nectin-4, full length on cells; assay: flow cytometry, T-47D cells, antibody bound on ice, 0 h at 37 C; remark: listed apart in the source
Method: as §3

[12] = biological target: T2, human Nectin-4, full length on cells; assay: flow cytometry on T-47D cells
Method: In this study, the binding activity of different antibodies to T-47D cells positive for Nectin-4 expression was detected by FACS, and the EC₅₀ for the binding of antibodies to the cells was analyzed by a four-parameter method. The procedures are briefly described as follows: T-47D cells (the Cell Bank of Chinese Academy of Sciences, TCHu 87) were trypsinized; the antibodies were serially diluted and co-incubated with T-47D cells at 4° C. for 0.5-1 h, followed by the addition of the secondary PE-labeled anti-human Fc antibody (Invitrogen, 12-4998-82); the signal intensity of red fluorescence was detected on a flow cytometer, and curves were plotted using Graphpad Prism and the EC₅₀ was calculated.

EC50 [1]: 0.042 µg/mL and 0.046 µg/mL
Kd [2]: 6.68 nM
MFI (mean fluorescence intensity) 0 h [3]: 58600 MFI
Kd [4]: 6.03 nM
koff [4]: 0.00436 s⁻¹
kon [4]: 723000 M⁻¹ s⁻¹
EC50 [5]: 0.019 µg/mL
EC50 [6]: 0.033 µg/mL
EC50 [7]: 1.23 µg/mL
EC50 [8]: 0.035 µg/mL
Kd [9]: 10.1 nM and 10.9 nM
koff [9]: 0.00581 s⁻¹ and 0.0059 s⁻¹
kon [9]: 577000 M⁻¹ s⁻¹ and 540000 M⁻¹ s⁻¹
EC50 [10]: 0.042 µg/mL
MFI (mean fluorescence intensity) 0 h [11]: 107000 MFI
EC50 [12]: 0.118 µg/mL and 0.788 nM
B1: reference antibody ASG-22 (antibody, human IgG1, kappa, V domains shown)
VH: EVQLVESGGGLVQPGGSLRLSCAASGFTFSSYNMNWVRQAPGKGLEWVSYISSSSSTIYYADSVKGRFTISRDNAKNSLSLQMNSLRDEDTAVYYCARAYYYGMDVWGQGTLVTVSS
VL: DIQMTQSPSSVSASVGDRVTITCRASQGISGWLAWYQQKPGKAPKFLIYAASTLQSGVPSRFSGSGSGTDFTLTISSLQPEDFATYYCQQANSFPPTFGGGTKVEIKR
